We go through two molecules from publication PMC4867596.

Experiment [1] has as its target peroxisomal MAVS of Mefs MAVS-Pex cells (UniProt Q7Z434). The experiment in a line: co-IP; Mefs MAVS-Pex cells transfected with vMIA-myc or myc-Miro1 for 24 h; precipitated with an antibody against MAVS and Dynabeads Protein G; blot for MAVS and myc; controls: non-transfected cells, Mefs MAVS-KO cells with vMIA-myc.
Experiment [2] deals with Pex19-YFP (UniProt P40855). The experiment can be described thus: co-IP; HepG2 cells co-transfected with Pex19-YFP and vMIA-myc for 24 h; Pex19-YFP precipitated with GFP-Trap_M beads, 2 h at 4 °C; lysis in 10 mM Tris-HCl pH 7.5, 150 mM NaCl, 0.5 mM EDTA, 0.5% NP-40; blot for myc, Pex19 and GFP; control: cells with GFP and vMIA-myc.
Experiment [3] deals with Pex19-YFP (UniProt P40855). The experiment in a line: co-IP; HFF cells transfected with vMIA-myc and Pex19-YFP for 24 h; precipitated with GFP antibody overnight at 4 °C and Dynabeads Protein G; blot for myc and GFP; control: cells with vMIA-myc alone.
Experiment [4] addresses vMIA-myc (HCMV mitochondria-localized inhibitor of apoptosis, myc-tagged) (human cytomegalovirus). The experiment in a line: co-IP; HFF cells transfected with vMIA-myc for 24 h; precipitated with myc antibody (2 h, 4 °C) and Protein G magnetic beads; blot for myc and endogenous Pex19; control: non-transfected cells.

UniProt Q7Z434, sequence (Q7Z434 whole entry): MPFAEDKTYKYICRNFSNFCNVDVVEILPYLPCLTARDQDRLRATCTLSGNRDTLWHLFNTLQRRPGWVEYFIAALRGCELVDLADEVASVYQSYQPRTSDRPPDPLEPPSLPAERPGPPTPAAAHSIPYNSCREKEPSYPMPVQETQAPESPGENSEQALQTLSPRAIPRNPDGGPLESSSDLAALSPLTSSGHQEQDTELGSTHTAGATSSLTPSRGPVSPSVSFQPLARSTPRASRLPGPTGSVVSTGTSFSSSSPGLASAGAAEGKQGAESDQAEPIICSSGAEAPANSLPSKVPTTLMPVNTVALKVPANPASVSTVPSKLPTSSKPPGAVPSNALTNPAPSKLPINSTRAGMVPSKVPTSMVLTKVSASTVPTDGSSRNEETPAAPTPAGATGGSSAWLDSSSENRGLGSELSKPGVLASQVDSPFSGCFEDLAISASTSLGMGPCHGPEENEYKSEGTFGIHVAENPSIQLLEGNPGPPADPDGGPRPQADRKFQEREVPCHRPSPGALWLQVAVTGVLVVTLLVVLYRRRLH
vMIA-myc (HCMV mitochondria-localized inhibitor of apoptosis, myc-tagged) (human cytomegalovirus), sequence (P16778 23-487): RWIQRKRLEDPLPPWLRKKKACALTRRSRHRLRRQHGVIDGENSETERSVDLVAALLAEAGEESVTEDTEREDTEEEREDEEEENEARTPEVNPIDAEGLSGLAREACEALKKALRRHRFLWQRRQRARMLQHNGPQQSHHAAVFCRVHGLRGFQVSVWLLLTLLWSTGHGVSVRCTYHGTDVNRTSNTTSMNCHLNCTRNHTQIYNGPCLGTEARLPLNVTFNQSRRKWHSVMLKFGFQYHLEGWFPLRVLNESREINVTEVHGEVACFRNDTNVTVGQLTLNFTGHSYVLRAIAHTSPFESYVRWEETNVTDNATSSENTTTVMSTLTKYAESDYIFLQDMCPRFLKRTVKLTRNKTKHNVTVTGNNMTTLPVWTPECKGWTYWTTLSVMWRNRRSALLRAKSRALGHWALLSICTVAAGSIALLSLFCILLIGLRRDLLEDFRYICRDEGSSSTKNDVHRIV

In the case of “vMIA-myc (HCMV mitochondria-localized inhibitor of apoptosis, myc-tagged) (natural protein)”, the fold increase of the IP band over the control in experiment [1] amounted to 18 fold; with Pex19-YFP [2] it was 7 fold; in the experiment with Pex19-YFP [3], 5 fold.

B1: endogenous Pex19 (natural protein)
chain: MAAAEEGCSVGAEADRELEELLESALDDFDKAKPSPAPPSTTTAPDASGPQKRSPGDTAKDALFASQEKFFQELFDSELASQATAEFEKAMKELAEEEPHLVEQFQKLSEAAGRVGSDMTSQQEFTSCLKETLSGLAKNATDLQNSSMSEEELTKAMEGLGMDEGDGEGNILPIMQSIMQNLLSKDVLYPSLKEITEKYPEWLQSHRESLPPEQFEKYQEQHSVMCKICEQFEAETPTDSETTQKARFEMVLDLMQQLQDLGHPPKELAGEMPPGLNFDLDALNLSGPPGASGEQCLIM
In experiment [4], B1 yielded a fold increase of the IP band over the control of 3 fold.
